Source: the supplement of paper PMC9112550, “Optimization of the antimicrobial peptide Bac7 by deep mutational scanning” (BMC Biology, 2022)

Tested on: Escherichia coli TOP10
Assay: shrunken log2 fold change of peptide-encoding DNA abundance (4.5 h post-induction vs induction); higher = less antimicrobial activity (less host growth inhibition)
Conditions: time post-induction: 4.5 h; library: site-saturation at positions 5, 18, 19, 20
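Further: peptides expressed intracellularly from a pBAD plasmid library in pooled LB shake-flask culture, induced with 0.3% L-arabinose, DNA abundance read by NGS, three biological replicates, DESeq2 with apeglm shrinkage.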

Sequence	shrunken log2 fold change
RRIRRRPPRLPRPRPRPMFFPRP	-0.0274
RRIRRRPPRLPRPRPRPMFHPRP	-0.395
RRIRRRPPRLPRPRPRPMFIPRP	-0.275
RRIRRRPPRLPRPRPRPMFWPRP	0.506
RRIRRRPPRLPRPRPRPMFYPRP	-0.229
RRIRRRPPRLPRPRPRPMGLPRP	-0.0617
RRIRRRPPRLPRPRPRPMGRPRP	0.464
RRIRRRPPRLPRPRPRPMGWPRP	0.637
RRIRRRPPRLPRPRPRPMHEPRP	0.213
RRIRRRPPRLPRPRPRPMHQPRP	-0.105
RRIRRRPPRLPRPRPRPMHSPRP	0.36
RRIRRRPPRLPRPRPRPMIMPRP	-0.323
RRIRRRPPRLPRPRPRPMIPPRP	-0.062
RRIRRRPPRLPRPRPRPMLGPRP	0.15
RRIRRRPPRLPRPRPRPMMEPRP	-0.0732
RRIRRRPPRLPRPRPRPMMTPRP	0.975
RRIRRRPPRLPRPRPRPMNEPRP	-0.0251
RRIRRRPPRLPRPRPRPMPGPRP	0.243
RRIRRRPPRLPRPRPRPMPNPRP	0.129
RRIRRRPPRLPRPRPRPMQGPRP	0.031
RRIRRRPPRLPRPRPRPMRQPRP	0.202
RRIRRRPPRLPRPRPRPMTAPRP	0.0357
RRIRRRPPRLPRPRPRPMVAPRP	0.363
RRIRRRPPRLPRPRPRPMVEPRP	-0.257
RRIRRRPPRLPRPRPRPMVKPRP	0.0693

Sequence	shrunken log2 fold change
RRIRRRPPRLPRPRPRPMWNPRP	0.00386
RRIRRRPPRLPRPRPRPMYCPRP	-0.574
RRIRRRPPRLPRPRPRPMYQPRP	-0.058
RRIRRRPPRLPRPRPRPNAQPRP	0.287
RRIRRRPPRLPRPRPRPNAYPRP	0.0409
RRIRRRPPRLPRPRPRPNCFPRP	0.176
RRIRRRPPRLPRPRPRPNDGPRP	0.0979
RRIRRRPPRLPRPRPRPNEDPRP	0.352
RRIRRRPPRLPRPRPRPNGSPRP	0.183
RRIRRRPPRLPRPRPRPNHFPRP	-0.0507
RRIRRRPPRLPRPRPRPNHMPRP	-0.299
RRIRRRPPRLPRPRPRPNHVPRP	-0.443
RRIRRRPPRLPRPRPRPNIAPRP	-0.109
RRIRRRPPRLPRPRPRPNIFPRP	-0.0516
RRIRRRPPRLPRPRPRPNIWPRP	0.134
RRIRRRPPRLPRPRPRPNKMPRP	-0.0549
RRIRRRPPRLPRPRPRPNLEPRP	0.442
RRIRRRPPRLPRPRPRPNLIPRP	-0.221
RRIRRRPPRLPRPRPRPNMAPRP	0.0119
RRIRRRPPRLPRPRPRPNMGPRP	-0.108
RRIRRRPPRLPRPRPRPNNIPRP	-0.556
RRIRRRPPRLPRPRPRPNQFPRP	0.119
RRIRRRPPRLPRPRPRPNRMPRP	-0.303
RRIRRRPPRLPRPRPRPNSAPRP	0.282
RRIRRRPPRLPRPRPRPNSKPRP	-0.00313

Sequence	shrunken log2 fold change
RRIRRRPPRLPRPRPRPNSVPRP	-0.0617
RRIRRRPPRLPRPRPRPNVQPRP	0.0253
RRIRRRPPRLPRPRPRPNVSPRP	0.137
RRIRRRPPRLPRPRPRPNYRPRP	0.0832
RRIRRRPPRLPRPRPRPPAEPRP	0.851
RRIRRRPPRLPRPRPRPPAGPRP	0.753
RRIRRRPPRLPRPRPRPPAMPRP	0.814
RRIRRRPPRLPRPRPRPPCCPRP	0.623
RRIRRRPPRLPRPRPRPPCDPRP	1.03
RRIRRRPPRLPRPRPRPPCHPRP	0.761
RRIRRRPPRLPRPRPRPPDLPRP	0.66
RRIRRRPPRLPRPRPRPPEDPRP	1.34
RRIRRRPPRLPRPRPRPPEWPRP	0.539
RRIRRRPPRLPRPRPRPPGHPRP	0.507
RRIRRRPPRLPRPRPRPPGIPRP	0.612
RRIRRRPPRLPRPRPRPPHPPRP	0.886
RRIRRRPPRLPRPRPRPPIYPRP	0.786
RRIRRRPPRLPRPRPRPPKHPRP	0.39
RRIRRRPPRLPRPRPRPPMAPRP	0.487
RRIRRRPPRLPRPRPRPPMKPRP	0.522
RRIRRRPPRLPRPRPRPPMPPRP	0.568
RRIRRRPPRLPRPRPRPPPAPRP	1.28
RRIRRRPPRLPRPRPRPPPSPRP	1.21
RRIRRRPPRLPRPRPRPPRHPRP	1.08
RRIRRRPPRLPRPRPRPPRQPRP	1.04

Sequence	shrunken log2 fold change
RRIRRRPPRLPRPRPRPPSVPRP	0.545
RRIRRRPPRLPRPRPRPPTEPRP	0.315
RRIRRRPPRLPRPRPRPPTMPRP	0.374
RRIRRRPPRLPRPRPRPPTTPRP	0.445
RRIRRRPPRLPRPRPRPPVVPRP	0.26
RRIRRRPPRLPRPRPRPPWSPRP	0.421
RRIRRRPPRLPRPRPRPPYPPRP	0.245
RRIRRRPPRLPRPRPRPQADPRP	0.312
RRIRRRPPRLPRPRPRPQALPRP	0.128
RRIRRRPPRLPRPRPRPQCSPRP	0.109
RRIRRRPPRLPRPRPRPQDAPRP	0.427
RRIRRRPPRLPRPRPRPQEQPRP	-0.0166
RRIRRRPPRLPRPRPRPQGNPRP	0.0869
RRIRRRPPRLPRPRPRPQHFPRP	0.256
RRIRRRPPRLPRPRPRPQKAPRP	0.0122
RRIRRRPPRLPRPRPRPQKDPRP	-0.151
RRIRRRPPRLPRPRPRPQKNPRP	0.204
RRIRRRPPRLPRPRPRPQKQPRP	0.338
RRIRRRPPRLPRPRPRPQLCPRP	0.559
RRIRRRPPRLPRPRPRPQLYPRP	0.101
RRIRRRPPRLPRPRPRPQMAPRP	0.455
RRIRRRPPRLPRPRPRPQNCPRP	-0.275
RRIRRRPPRLPRPRPRPQPMPRP	0.606
RRIRRRPPRLPRPRPRPQPPPRP	0.413
RRIRRRPPRLPRPRPRPQRSPRP	0.302

Sequence	shrunken log2 fold change
RRIRRRPPRLPRPRPRPQSTPRP	-0.095
RRIRRRPPRLPRPRPRPQVEPRP	0.0147
RRIRRRPPRLPRPRPRPQWWPRP	0.297
RRIRRRPPRLPRPRPRPRENPRP	0.135
RRIRRRPPRLPRPRPRPREQPRP	0.803
RRIRRRPPRLPRPRPRPRGCPRP	0.984
RRIRRRPPRLPRPRPRPRGMPRP	0.907
RRIRRRPPRLPRPRPRPRHEPRP	0.148
RRIRRRPPRLPRPRPRPRHMPRP	-0.0552
RRIRRRPPRLPRPRPRPRICPRP	0.414
RRIRRRPPRLPRPRPRPRINPRP	0.125
RRIRRRPPRLPRPRPRPRKVPRP	0.602
RRIRRRPPRLPRPRPRPRLCPRP	0.472
RRIRRRPPRLPRPRPRPRLTPRP	0.439
RRIRRRPPRLPRPRPRPRQAPRP	0.801
RRIRRRPPRLPRPRPRPRVLPRP	0.349
RRIRRRPPRLPRPRPRPRVMPRP	0.413
RRIRRRPPRLPRPRPRPRVPPRP	0.745
RRIRRRPPRLPRPRPRPRWRPRP	0.832
RRIRRRPPRLPRPRPRPRYQPRP	0.0511
RRIRRRPPRLPRPRPRPRYRPRP	-0.0166
RRIRRRPPRLPRPRPRPRYSPRP	-0.49
RRIRRRPPRLPRPRPRPSCIPRP	-0.596
RRIRRRPPRLPRPRPRPSCTPRP	0.0387
RRIRRRPPRLPRPRPRPSDLPRP	0.0119

Sequence	shrunken log2 fold change
RRIRRRPPRLPRPRPRPSDYPRP	-0.185
RRIRRRPPRLPRPRPRPSEMPRP	0.0772
RRIRRRPPRLPRPRPRPSETPRP	0.493
RRIRRRPPRLPRPRPRPSFNPRP	-0.192
RRIRRRPPRLPRPRPRPSGNPRP	0.122
RRIRRRPPRLPRPRPRPSGPPRP	-0.0409
RRIRRRPPRLPRPRPRPSGSPRP	-0.0977
RRIRRRPPRLPRPRPRPSGTPRP	0.494
RRIRRRPPRLPRPRPRPSIDPRP	-0.107
RRIRRRPPRLPRPRPRPSLGPRP	0.261
RRIRRRPPRLPRPRPRPSLRPRP	-0.0199
RRIRRRPPRLPRPRPRPSMKPRP	-0.434
RRIRRRPPRLPRPRPRPSNQPRP	0.00316
RRIRRRPPRLPRPRPRPSPLPRP	0.479
RRIRRRPPRLPRPRPRPSPRPRP	1.03
RRIRRRPPRLPRPRPRPSRIPRP	0.157
RRIRRRPPRLPRPRPRPSRKPRP	0.129
RRIRRRPPRLPRPRPRPSRNPRP	0.453
RRIRRRPPRLPRPRPRPSTGPRP	0.112
RRIRRRPPRLPRPRPRPSVRPRP	0.238
RRIRRRPPRLPRPRPRPSVYPRP	-0.0412
RRIRRRPPRLPRPRPRPSWSPRP	-0.116
RRIRRRPPRLPRPRPRPSYFPRP	-0.395
RRIRRRPPRLPRPRPRPSYWPRP	-0.0367
RRIRRRPPRLPRPRPRPTAAPRP	1.21
